Assay results: the DeepSol protein solubility set

test: soluble on expression in E. coli; label from the status in PepcDB or PDB records

Sequence	soluble on expression in E. coli
MRLPDAGFRRYIVVAGRRNVGKSSFMNALVGQNVSIVSEYAGTTTDPVYKSMELYPVGPVTLVDTPGLDDVGELGRLRVEKARRVFYRADCGILVTDSEPTPYEDDVVNLFKEMEIPFVVVVNKIDVLGEKAEELKGLYESRYEAKVLLVSALQKKGFDDIGKTISEILPGDEEIPYLGDLIDGGDLVILVVPIDLGAPKGRLIMPQVHAIREALDREAIALVVKERELRYVMENIGMKPKLVITDSQVVMKVASDVPEDVELTTFSIVESRYRGDLAYFVESVRKIEELEDGDTVVIMEGCTHRPLTEDIGRVKIPRWLVNHTGAQLNFKVIAGKDFPDLEEIEGAKLIIHCGGCVLNRAAMMRRVRMAKRLGIPMTNYGVTISYLHGVLDRAIRPFREEVKVLEHHHHHH	soluble
KMKNWIKTVCFLLWTCVMCTACIDDDVEEGTVDLQTGESIPVFSVVMDDGQIITSETLKGEVSLIVFFHTGCPDCRKELPVLQKIYTDYGRRIRMVCISREESSAEIVRYWDENHLTLPYSAQENRTVYYQFAKSGIPRVYVIDKELVIRSVFTDNPLASYEDLAEAITASL	not soluble
MAVEEFNQNLNEIMKFKECNITVDTCVVIDGRITELISDGTIEKCTIIVPEAVISELEAQANKGREIGYFGIEELKKLVKVAKENEMVLEYYGERPSTGEVSLAKAGEIDAMIRKVAKDTNSILFTSDRIQYNLAIAQNINAHFLKVHEEKVDLKLV	not soluble
MDNPCPTCGQELEWTGQYHCSACTVDYCKVGFCPECGSELEKLQACGAANYFCNQCNELKSKSKIRFVFQPLNGNSQLEHHHHHH	soluble
STITTEEVLVTVFQFLEKATEYPYNDPHKTLALVVHGILLTHGFRPSEEEPPENVDNWSLSVENAKIPNCFEENKYGGSYRHYKSCMTFEVRMVPLDKYVVVNAVASDVDRVFYCELKLEKYFKDTVLEGGKLVVPLRNLKWSQILKNVTDMIAVLRTQIIYALVPDSAKEGYEAKTSETHVGQSTNQQSQDSRQFSLPSRDPLRVVPPVGSRYYPSAYIDEDRDSIPVLGQGDLYPGGLPRLERTFPSGPLDGSFAAPDNGSLMGPRHSMFQRRDQRPGPGNNMLPRGAVPPGARFDEFGPRFPPDETYSTLAGWRHRQEMPNNDVDEPPPPEMYM	soluble
MTEKKIDFKKEEKKFYAPKRKPERIFVPEMNFLMVDGKGDPDGEEYQKAVQSLYAIAYTIKMSKMGETRLDGYSDFVVPPLEGFWWSEGKFDLKDRDAWLWTSILRQPDFVTEEVLEWAKEVARKKKPDVDTSRVKLVRFEEGECVQMMHVGPFSEEVHTVAEMHQFMETEGLRNDTGAIRKHHEIYLSDPRKANPEKMKTILRLPVS	soluble
MVSSQKLEKPIEMGSSEPLPIADGDRRRKKKRRGRATDSLPGKFEDMYKLTSELLGEGAYAKVQGAVSLQNGKEYAVKIIEKQAGHSRSRVFREVETLYQCQGNKNILELIEFFEDDTRFYLVFEKLQGGSILAHIQKQKHFNEREASRVVRDVAAALDFLHTKDKVSLCHLGWSAMAPSGLTAAPTSLGSSDPPTSASQVAGTTGIAHRDLKPENILCESPEKVSPVKICDFDLGSGMKLNNSCTPITTPELTTPCGSAEYMAPEVVEVFTDQATFYDKRCDLWSLGVVLYIMLSGYPPFVGHCGADCGWDRGEVCRVCQNKLFESIQEGKYEFPDKDWAHISSEAKDLISKLLVRDAKQRLSAAQVLQHPWVQGQAPEKGLPTPQVLQRNSSTMDLTLFAAEAIALNRQLSQHEENELAEEPEALADGLCSMKLSPPCKSRLARRRALAQAGRGEDRSPPTAL	soluble
MLDLIQTRRDLHQIPEIGLEEFKTQAYLLDVIEKLTTGKDFVQIRTWRTGILVYLQGSQPERTIGWRTDIDGLPIVEQTGLPFASQHQGRMHACVHDFHMTIALGCLERALEEQPKNNLLFLFQPAEENEAGGMLMYEDGAFGDWLPDQFYGLHVRPDLKVGQIATNTHTLFAGTCEVKIRFKGKGGHAAFPHEANDALVAASYFVTQVQSVVSRNVNPIEGAVVTFGVFQAGTTNNVITDTAFLHGTIRALTQDMSLLVQKRVKTVAEGVAAAFDMEVEVELKQGGYLPVENNPALARELMDFFDEKDGIELIDIEPAMTGEDFGYLLSKVDGVMFWLGIDSPYALHHPQMSPKEEVLAIGVAAVSSFLKKKAAE	soluble
MSLQKMKSSRKFLEGEPNIVIRKGELQYKVMKKNKIDINQLQSLLRQAGSFSIQEVEYAILETNGMVSVLPKSDFDKPTNKDLQIPSKSVSLPITLIIDGEIVRDNLKEAGVDEQWLKQELKKKNIDKTEDVLFAEWHKNKPLYTVTYEQSKGHHHHHH	soluble
MAHHHHHHMVELTEEEAMNFLNIALGEAEKSLQKELKEMPIFCLLINEEKKIISSSYNYTNESKNGSRHSELIAIDKYIYDGNYEQMKNLNLIKCYNNNENSIEKSIQDYFVSLDEKKNSELKINNYENINDKYMNEKYNKIQERINNLKKCCIVVTCEPCIMCVYALKLIGIKNIYFCCLNERFGGCGSVLSLHKKYEDINVHYIEHPECSEKSINLMKAFYKAGNPSAPEEKRKRPIS	not soluble
MPLSPYLSFAGNCSDAIAYYQRTLGAELLYKISFGEMPKSAQDSAENCPSGMQFPDTAIAHANVRIAGSDIMMSDAIPSGKASYSGFTLVLDSQQVEEGKRWFDNLAANGKIEMAWQETFWAHGFGKVTDKFGVPWMINVVKQQPTQ	not soluble
MRLTKQTNYAVRMLMYCAANEGKLSRIPEIARAYGVSELFLFKILQPLNKAGLVETVRGRNGGVRLGKPAEKISLFDVVRVTEDSFAMAECFEDGAVECPLVDSCGLNSALRKALNAFFDVLAEYSIDDLVKARPQINFLLGIDTEMPKIAALPAA	not soluble
MGHHHHHHSHAESIKNQMTVKEWEKVFEMSQDKNLYHNLCTSLFPTIHGNDEVKRGVLLMLFGGVPKTTGEGTSLRGDINVCIVGDPSTAKSQFLKHVEEFSPRAVYTSGKASSAAGLTAAVVRDEESHEFVIEAGALMLADNGVCCIDEFDKMDVRDQVAIHEAMEQQTISITKAGVKATLNARTSILAAANPISGHYDRSKSLKQNINLSAPIMSRFDLFFILVDECNEVTDYAIARRIVDLHSRIEESIDRVYSLDDIRRYLLFARQFKPKISKESEDFIVEQYKHLRQRDGSGVTKSSWRITVRQLESMIRLSEAMARMHCCDEVQPKHVKEAFRLLNKSIIRVETPDVNLDQEEE	not soluble
MVTSTRARFGQFVHRRRRLLNLTQDEVTAAGGPSDAAQTRAENGTGPDPSIETLRKLDVALRWAPGSAARTLDGGHPTPLEALDGEDRSPAARPLTLGPSEIPLDLDTIIEILGPHTQITKLSAAHPEVPGLAEAAGELSRVVSKITGAYVTRLLEVNGGPTGPRQPLVEFAFGHLLEEPTTVTDPRELEEARYRRFLYGRGEDLDAATRERFWRRWEDAVKLVATEDPERSGDAEVNA	not soluble
MEAEPLETEQDEWRKERMRVLDEWCEIELKGADALKMDVTREPGSPTVAVAPETSLQDLYPLLIATSSSNAPPSATPTDDVTDPEVQVVSRESIDNRSTFNRIIDVCLCRPVKSQMGPKAYTDKTLILKLAQIPYDHENGTHWLLLSDYFNNVSRSLMTSSEYSHVTNPSRVGAHWVTVGFQSATPHTDFRGCGVLGLLQMHTFTQRVPANLLRAIVLLATTEPNDFPLAVVSINITSILLTQLKKGALDNFGNEIEGLYPFFSALHASAMCRFCSIYKSQKCTLANTQTIFSEITRQLEKSPLSLIMLLNPTNDELINTLL	not soluble
ELLKSGKAKDRFEGEENAPVTIVEYASLTCVHCAHFYNDVLPQIRKKYIKTGKVKLIFRDFAFDSRATAGFMLARCAPEDRYFPLIEVLFQKQSEWVWARDAVTPLKKIGLMAGFTDESFNACLKNQSILDEVNASFERGKELGVNATPTFFINGNKYEGAMSVEAFFSVIDSFLKN	not soluble
MGSDKIHHHHHHMSLLSDEEVNSLSIQRMIFHVVDPALENPTFLAEVNPPQCVDFFVERVKETLKGSAYEFVPGAGIPNLLHRALPGPDGKDDFITVSHALAERFKDKVKQDKRLAPGVLMLFALKTNGNNQLVAVIKYEHQQVVSYSYVKDTNGSPVLDADGNPVPDLKTLVETFTKDRKAMQKSAVIRFQNINSSGGGTFSSSAVVIDHSSGRYRDATQHFANFLDIRRALKPSELTKRLEDAAVEAIKAHRSEVPTEIAKAPKRHVRTAMSRLDGFDFEKPEEFLGAVLQGVSPDSKILKTFKSKLASKNISTEAFKFEGATPPPAEYRRVVTNEGVTLLFSAGHEEKKNVEIQDEENGGVKITIRTTGLERNDELEKMPRLPD	not soluble
MKKKTTLSEEDQALFRQLMAGTRKIKQDTIVHRPQRKKISEVPVKRLIQEQADASHYFSDEFQPLLNTEGPVKYVRPDVSHFEAKKLRRGDYSPELFLDLHGLTQLQAKQELGALIAACRREHVFCACVMHGHGKHILKQQTPLWLAQHPHVMAFHQAPKEYGGDAALLVLIEVEEWLPPELP	not soluble
MSLITDGIMHKVREVYQLLRKEPGIIVGVSNRHVHLSREDLETLFGEGYELTPVKELRQPGQYAAKETVTIVGPKGAIENVRVLGPVRKETQVEISRTDAFRLGVRPPVRDSGDLEGTPGIVIIGPNGILVKEKGVIIAKRHIHMHPKDAEYYGVKDKDIVKVIVESGDRRLIFDDVLIRVREDFALEFHVDTDEANAAMLNTGDLVYIVEFEGGSHHHHHH	soluble
MAHHHHHHMLQRLQLFRSTLVNFLEWRNFSDVVHGCYVRVLLEMRSTEENRRESPDNYYIALVKGAQRGPVYSGFSADAVTTEWHIVIELPPCFRSTQNGNVVQLNSISNSPFRQAEYQNWVDMTNETRELSFPSLPQLQFRLGMLEEHKQQALTPEPRRHRNGEDAEAAALREWALEEKRKRITEEIMVTHVKLRRIDQLKALSLEDLQEVEREILDLITGVRISINERSKCMLCHNRICTEICYPCKHQVLCKDCAKSIRGRCPAPKCKTPVQYTFEAFTS	not soluble
MGSDKIHHHHHHVSQLTPWQHYQQDLTRDDFSHDAAQEQAVKSLQRVYDELIVAAKPASSVSKLFSAIGIKSTPTPVKGLYLWGGVGRGKTYLMDTFFDALPTDRKLRAHFHRFMHQIHNDLGELKGVQDPLLTIAKKMASQYQIICFDEFFVSDITDAMLLGTLFQALFKEGVALVATSNIIPDELYKNGLQRVRFLPAIALINQHCEILNVDSGIDYRLRTLEQAEIYHYPLDEQADINLLHYFDQLAPESEKLTAPIDVDGRAIRIRQQSQGVLLINFRDLCDGPRSQRDYMEMACLYHTVLVSGLEQMGSQQTGDDIARRFLAMVDEFYERNVKLIISAQVELEHIYTDGQLNFEFRRCRSRLIEMQSREYLALEHLP	not soluble
MAEETDVIVVGAGLSGLVAATEIADAGKRVIVVDQEGEQSVGGQAFWSFGGLFLVNSPEQRRLGIKDSFDLAMQDWLGTAGFDRDEDHWPRKWAEAYVAFAAGEKRDWLHAMGHRILPVVGWAERGGYDAMGHGNSVPRFHVTWGTGPGIVEPFERRAREAMKSGRLIFKFRHRVDALSITNGTVDGVSGAVLAPDNVERGKSSSRNVVGEFALKAQAVIVASGGIGGNHELVRQNWPKRLGEPPKFMISGVPEHVDGRMIGITEQAGARLINRDRMWHYVEGIQNWSPIWPRHGIRILPGPSSMWFDATGTRLPAPLFPGSDTLGQLKYIMSTGHDYSWFILTQSIIKKEFALSGSEQNPDLTGKSWRMTLRRATNKGAPAPVEAFKSHGVDFIVRDKIDDLVTAMNKLAGSDLLRLEHIKMQIEARDREIANPYVKDAQVMNIHNARRYIGDKLIRTASPHRILDPAHGPLIAVKLNILTRKTLGGFETDLDSRVFGGEGSIIPGLYAVGEAAGFGGGGVHGYRSLEGTFLGGCLFSGRNAGRAAAKAVG	not soluble
